Test [1] deals with T1, cynomolgus monkey GPVI extracellular domain fused at its C-terminus to human IgG1 Fc (GPVI-Fc) (cynomolgus monkey; human).
T1 construct: also called cyGPVI-2; cyGPVI
The test is described as follows: Solution equilibrium titration (SET), Fab with GPVI-Fc. How it is done:
(§1) Affinity determination in solution was basically performed as described in the literature (Friguet et al. 1985). In order to improve the sensitivity and accuracy of the SET method, it was transferred from classical ELISA to ECL-based technology (Haenel et al. 2005).
(§2) 1 mg/mL goat-anti-human (Fab)2 fragment specific antibodies (Dianova) were labeled with MSD Sulfo TAG™ NHS-Ester (Meso Scale Discovery | Gaithersburg | Md. | USA) according to the manufacturer's instructions. The experiments were carried out in polypropylene microtiter plates and PBS (GIBCO 14190 | pH 7.0-7.2) containing 0.5% BSA and 0.02% Tween20 as assay buffer. Serial dilutions of unlabeled human GPVI-Fc (SEQ ID NO: 4), cynomolgus monkey GPVI-Fc (SEQ ID NO: 7), and mouse GPVI-Fc (SEQ ID NO: 8) (as prepared in Example 1) were prepared, starting with a concentration at least 10 times higher than the expected KD. Wells without antigen were used to determine Bmax values; wells containing only assay buffer were used to determine background. After addition of appropriate amount of binder (antibody concentration similar to or below the expected KD, 60 μL final volume), the mixture was incubated over night at RT. MSD plates were coated with antigen or biotinylated antigen on standard and streptavidin plates, respectively (30 μL per well). After washing the plate with PBS with 0.05% Tween 20, the equilibrated samples were transferred to the plates and incubated for 20 min. Following incubation, 30 μL per well of the MSD-Sulfo-tag labeled detection antibody (anti-human (Fab)2 | final dilution typically 1:2,000) was added to the washed MSD plate and incubated for 30 min at RT on an Eppendorf shaker (700 rpm). After washing the MSD plate and adding 30 μL/well MSD Read Buffer T with surfactant, electrochemiluminescence signals were detected using a Sector Imager 6000 (Meso Scale Discovery | Gaithersburg | Md. | USA). The data was evaluated with XLfit (IDBS) software applying customized fitting models. For KD determination of Fabs the fit model according to (Haenel et al. 2005), modified according to (Abraham et al.) was used.

For test [2], the target named is T2, human GPVI-1A extracellular domain fused at its C-terminus to human IgG1 Fc (GPVI-Fc) (human).
T2 construct: also called hGPVI-1a; hGPVI
Described as above. The method, then: as §1, §2

For test [3], the target named is T3, mouse GPVI extracellular domain fused at its C-terminus to human IgG1 Fc (GPVI-Fc) (mouse; human).
T3 construct: also called mGPVI; mouse GPVI-Fc
The description is as above. How it is done: as §1, §2
Target sequence in this assay (chain, as listed by the source limits assumed): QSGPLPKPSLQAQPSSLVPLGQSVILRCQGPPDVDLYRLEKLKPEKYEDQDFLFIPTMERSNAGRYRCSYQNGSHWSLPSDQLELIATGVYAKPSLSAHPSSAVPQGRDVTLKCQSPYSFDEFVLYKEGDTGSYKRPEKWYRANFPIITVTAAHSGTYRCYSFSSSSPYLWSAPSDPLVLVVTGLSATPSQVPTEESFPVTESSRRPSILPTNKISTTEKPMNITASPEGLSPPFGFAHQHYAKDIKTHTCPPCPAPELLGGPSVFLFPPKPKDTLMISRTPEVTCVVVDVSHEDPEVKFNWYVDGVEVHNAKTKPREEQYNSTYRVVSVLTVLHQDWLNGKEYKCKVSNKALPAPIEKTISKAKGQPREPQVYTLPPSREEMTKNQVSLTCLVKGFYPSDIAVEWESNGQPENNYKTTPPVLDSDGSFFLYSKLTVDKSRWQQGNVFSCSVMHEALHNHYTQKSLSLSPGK

Test [4] deals with T4, human GPVI (full-length) expressed on stably transfected rat basophilic RBL-2H3 cells (human, UniProt Q9HCN6 21-339).
T4 sequence (looked up): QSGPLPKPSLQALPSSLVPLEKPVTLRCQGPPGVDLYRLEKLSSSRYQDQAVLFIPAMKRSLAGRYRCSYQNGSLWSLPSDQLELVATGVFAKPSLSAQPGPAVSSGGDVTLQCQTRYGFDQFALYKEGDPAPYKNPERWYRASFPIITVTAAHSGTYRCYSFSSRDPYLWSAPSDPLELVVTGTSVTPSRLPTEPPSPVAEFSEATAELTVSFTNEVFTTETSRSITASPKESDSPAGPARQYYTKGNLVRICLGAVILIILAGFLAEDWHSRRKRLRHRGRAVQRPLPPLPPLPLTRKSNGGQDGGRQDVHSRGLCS
The test is described as follows: cell-based or functional assay.

Test [5] deals with T5, mouse GPVI on the cell surface of mouse platelets (mouse, UniProt P0C191 22-313).
T5 construct: whole, on cells; also called GPVI on murine platelets
T5 sequence (looked up): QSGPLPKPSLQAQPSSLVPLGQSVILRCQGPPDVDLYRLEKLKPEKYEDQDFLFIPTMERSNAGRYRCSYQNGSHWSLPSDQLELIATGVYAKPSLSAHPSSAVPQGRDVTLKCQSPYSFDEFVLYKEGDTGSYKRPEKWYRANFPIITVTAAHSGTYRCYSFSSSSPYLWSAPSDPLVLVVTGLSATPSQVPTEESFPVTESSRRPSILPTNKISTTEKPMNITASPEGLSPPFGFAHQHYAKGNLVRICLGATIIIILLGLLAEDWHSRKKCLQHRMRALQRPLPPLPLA
Briefly: FACS on mouse platelets.

For test [6], the target named is T6, mouse GPVI (full-length) expressed on stably transfected CHO cells (mouse, UniProt P0C191 22-313).
T6 sequence: T5 sequence (looked up)
Briefly: Cell ELISA (MSD) on CHO cells expressing mouse GPVI. Background: An ELISA detects its analyte on a solid surface through an enzyme-linked reagent.

The target in test [7] is T7, rat GPVI extracellular domain fused at its C-terminus to human IgG1 Fc (GPVI-Fc) (rat; human).
T7 construct: also called rGPVI
Briefly: ELISA on coated rat GPVI-Fc.

In test [8] the target is T3, mouse GPVI extracellular domain fused …. Briefly: ELISA on coated mouse GPVI-Fc.

T2 sequence (chain, as listed by the source limits assumed): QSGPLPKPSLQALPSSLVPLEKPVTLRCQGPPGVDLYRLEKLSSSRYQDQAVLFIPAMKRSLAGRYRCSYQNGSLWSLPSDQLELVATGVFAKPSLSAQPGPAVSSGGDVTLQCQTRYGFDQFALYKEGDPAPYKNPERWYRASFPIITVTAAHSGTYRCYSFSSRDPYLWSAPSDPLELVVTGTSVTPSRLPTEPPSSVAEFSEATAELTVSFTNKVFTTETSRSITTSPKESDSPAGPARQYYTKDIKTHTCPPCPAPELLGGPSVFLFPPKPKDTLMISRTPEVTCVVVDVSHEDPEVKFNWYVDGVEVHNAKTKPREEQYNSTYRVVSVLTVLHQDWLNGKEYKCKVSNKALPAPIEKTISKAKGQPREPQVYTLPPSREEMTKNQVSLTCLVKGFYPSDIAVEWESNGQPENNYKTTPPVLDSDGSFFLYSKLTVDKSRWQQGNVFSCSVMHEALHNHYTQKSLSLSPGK
T1 sequence (chain, as listed by the source limits assumed): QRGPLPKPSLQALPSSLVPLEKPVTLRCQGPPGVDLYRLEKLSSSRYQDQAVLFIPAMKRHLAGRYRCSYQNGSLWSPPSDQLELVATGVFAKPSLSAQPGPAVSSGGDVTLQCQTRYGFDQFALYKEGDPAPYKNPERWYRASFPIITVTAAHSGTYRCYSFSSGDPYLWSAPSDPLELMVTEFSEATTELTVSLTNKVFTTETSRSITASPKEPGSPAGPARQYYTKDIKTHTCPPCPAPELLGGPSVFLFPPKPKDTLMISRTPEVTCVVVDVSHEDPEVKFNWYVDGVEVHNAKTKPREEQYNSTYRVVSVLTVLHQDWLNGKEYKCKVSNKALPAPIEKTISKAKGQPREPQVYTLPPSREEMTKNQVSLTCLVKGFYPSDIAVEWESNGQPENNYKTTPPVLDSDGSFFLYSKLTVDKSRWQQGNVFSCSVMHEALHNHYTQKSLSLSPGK
T7 sequence (chain, as listed by the source limits assumed): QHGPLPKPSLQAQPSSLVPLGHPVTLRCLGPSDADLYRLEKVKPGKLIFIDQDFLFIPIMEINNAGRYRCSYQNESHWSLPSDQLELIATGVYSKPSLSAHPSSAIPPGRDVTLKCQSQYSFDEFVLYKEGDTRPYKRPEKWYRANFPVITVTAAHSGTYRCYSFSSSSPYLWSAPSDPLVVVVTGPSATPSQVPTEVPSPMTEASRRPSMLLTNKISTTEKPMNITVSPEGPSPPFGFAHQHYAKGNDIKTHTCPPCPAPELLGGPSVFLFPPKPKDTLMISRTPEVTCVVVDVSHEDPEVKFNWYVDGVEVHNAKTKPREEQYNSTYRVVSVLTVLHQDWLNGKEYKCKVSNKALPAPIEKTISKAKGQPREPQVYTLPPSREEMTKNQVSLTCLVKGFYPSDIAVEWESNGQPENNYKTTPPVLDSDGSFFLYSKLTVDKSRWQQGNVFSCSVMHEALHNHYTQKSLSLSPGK

B1: Fab #1 comprising a modified heavy chain constant region (Fab, V domains shown)
VH: QVQLVQSGAEVKKPGASVKVSCKASGYTFTSHYMHWVRQAPGQGLEWMGLIEPSEGETEYAQRFQGRVTMTRDTSTSTVYMELSSLRSEDTAVYYCARDSSRSYPLGFDIWGQGTLVTVSS
VL: QSVLTQPPSVSAAPGQKVTISCSGSSSNIGNNYVSWYQQLPGTAPKLLIYDNNKRPSGIPDRFSGSKSGTSATLGITGLQTEDEADYYCAAWDFRSSRWVFGGGTKLTVLG
notes: Human Fab from the Ylanthia library; produced in HKB11 cells; also called Fab #1 mod; HC
For the molecule B1, the Kd – broadly, the constant that tells how readily two partners part at equilibrium – stood at 0.075 nM in test [1], 0.068 nM in test [2] and 28 nM in test [3]. The “Cell adhesion assay IC50 [nM], coated VitroCol” value in test [4] was 0.58 nM. The “Cell adhesion assay Max. inhibition at 200 nM Fab [%], coated VitroCol” value in test [4] turned out to be 55%.

B2: Fab #2 comprising a modified heavy chain constant region (Fab, V domains shown)
VH: QVQLVESGGGLVKPGGSLRLSCAASGFSFSDHYMSWIRQAPGKGLEWVSSVGSEGKFIDYAASVKGRFTISRDNAKNSLYLQMNSLRAEDTAVYYCARHYREFRWHYYYFDYWGQGTLVTVSS
VL: QSVLTQPPSVSGAPGQRVTISCTGSSSNIGAGYDVHWYQQLPGTAPKLLIYGNSNRPSGVPDRFSGSKSGTSASLAITGLQAEDEADYYCQSHDLGAHVWVFGGGTKLTVLG
notes: Human Fab from the Ylanthia library; produced in HKB11 cells; also called Fab #2 mod; HC
With B2, in test [1], the Kd was found to be 0.024 nM. The molecule also returned a Kd in test [2] of 0.027 nM. Also, in test [3], the Kd was determined as 7.1 nM. For the same molecule, in test [4], the “Cell adhesion assay IC50 [nM], coated CRP-XL” value was determined as 1.59 nM; the “Cell adhesion assay IC50 [nM], coated VitroCol” value stood at 0.89 nM; the “Cell adhesion assay Max. inhibition at 200 nM Fab [%], coated CRP-XL” value was 100%; the “Cell adhesion assay Max. inhibition at 200 nM Fab [%], coated VitroCol” value was found to be 93%.

B3: Fab #3 comprising a modified heavy chain constant region (Fab, V domains shown)
VH: QVQLVESGGGLVKPGGSLRLSCAASGFSFGDYYVSWIRQAPGKGLEWVSAIGGSGSAVQYAESVKGRFTISRDNAKNSLYLQMNSLRAEDTAVYYCARHYREFRWHYYYFDYWGQGTLVTVSS
VL: B2 VL
notes: Human Fab from the Ylanthia library; produced in HKB11 cells; also called Fab #3 mod; HC
For B3, in test [1], the Kd came to 0.068 nM. Besides, binding in test [2] was characterised by a dissociation constant (Kd) of 0.062 nM. Also, the Kd in test [3] was determined as 0.6 nM. In test [4], the “Cell adhesion assay IC50 [nM], coated CRP-XL” value came to 1.81 nM; the “Cell adhesion assay IC50 [nM], coated VitroCol” value is 0.84 nM; the “Cell adhesion assay Max. inhibition at 200 nM Fab [%], coated CRP-XL” value stood at 100%; the “Cell adhesion assay Max. inhibition at 200 nM Fab [%], coated VitroCol” value was determined as 91%.

B4: Reference Control Antibody RefFab #1 (humanized GPVI antibody of WO2011073954A2, SANOFI) (Fab, V domains shown)
VH: EVQLLESGPGLVAPSGSLSITCTVSGFSLTGYGVNWVRQPPGKGLEWLGMIWGDGSTDYQSTLKSRLSISKDNSKSQVFLKMNSLRTDDTARYYCARDLPMDYWGLGTSVTVSS
VL: DIQMTQSPSSLSASVGGRVTITCKASQDINKYIAWYQHKPGKGPSLLIHYTSTLQPGVPSRFSGSGSGRDYSFSISNLQPEDIATYYCLQYANLLTFGGGTKLEIKR
notes: Cloned into mammalian Fab expression vectors; a glycine-serine linker (G4S)2 was added to the C-terminus of the Fab heavy chain
Regarding B4, the binding result in test [5], in test [6], in test [7] and in test [8] was “no binding” in each case. Besides, the Kd is 0.036 nM in test [1] and 0.054 nM in test [2]. Further, the “Cell adhesion assay IC50 [nM], coated CRP-XL” value in test [4] was 2.69 nM. Besides, the “Cell adhesion assay IC50 [nM], coated VitroCol” value in test [4] was found to be 1.17 nM. Besides, the “Cell adhesion assay Max. inhibition at 200 nM Fab [%], coated CRP-XL” value in test [4] stood at 100%. Moreover, the “Cell adhesion assay Max. inhibition at 200 nM Fab [%], coated VitroCol” value in test [4] was 92%.

B5: Fab #4 comprising a modified heavy chain constant region (Fab, V domains shown)
VH: QVQLVQSGAEVKKPGASVKVSCKASGGAFTSSYMHWVRQAPGQGLEWMGIIEPTGASTLYAQRFQGRVTMTRDTSTSTVYMELSSLRSEDTAVYYCARTGIALPLGFDLWGQGTLVTVSS
VL: QSVLTQPPSVSAAPGQKVTISCSGSSSNIGNNYVSWYQQLPGTAPKLLIYDNNKRPSGIPDRFSGSKSGTSATLGITGLQTEDEADYYCAAWSTRFRWVFGGGTKLTVLG
notes: Human Fab from the Ylanthia library; produced in HKB11 cells; also called Fab #4 mod; HC
As for B5, the Kd in test [1] was determined as 0.017 nM; in test [2], 0.022 nM; in test [3], 0.29 nM. The “Cell adhesion assay IC50 [nM], coated VitroCol” value in test [4] turned out to be 0.57 nM. In test [4], the “Cell adhesion assay Max. inhibition at 200 nM Fab [%], coated VitroCol” value was determined as 59%.

The values above are taken from patent US20210214435A1 (MorphoSys, published 2021).
